Where a chain is given by its changes, count along the chain named.

B1: AB-007051 (antibody, V domains shown)
VH: QMQLVESGGGVVQPGRSLRLSCTASGFTFSTYAMHWVRQSPGQGLQWVAVISYHSRNKYYEDSVRGRFTISRDNSKNTLYLQMNSLRAEDTAVYYCARDGYSSSFFDFWGQGTLVTVSS
VL: DIQMTQSPSTLSASVGDRVAITCRASQSISRWLAWYQQQPGKAPKLLMSGASVLESGVPSRFSGSGSGTEFTLTISSLQPDDFATYYCQHYNSYFVTFGQGTKVEIK
B2: AB-007074 (antibody, V domains shown)
VH: B1 VH with T23A, S40A, R56T
VL: B1 VL with A20T, F95Y
B3: AB-007061 (antibody, V domains shown)
VH: B1 VH with R56T
VL: B1 VL with S30D
B4: AB-007053 (antibody, V domains shown)
VH: B1 VH with R56T, N57Q
VL: B1 VL
B5: AB-007069 (antibody, V domains shown)
VH: B1 VH with R56T
VL: B1 VL with G50V
B6: AB-007062 (antibody, V domains shown)
VH: B1 VH with R56T
VL: B1 VL with R31S
B7: AB-007060 (antibody, V domains shown)
VH: B1 VH with R56T, F105Y
VL: B1 VL
B8: AB-007066 (antibody, V domains shown)
VH: B1 VH with R56T
VL: B1 VL with G50Q
B9: AB-007073 (antibody, V domains shown)
VH: B1 VH with R56T
VL: B1 VL with Y94H
B10: AB-007067 (antibody, V domains shown)
VH: B1 VH with R56T
VL: B1 VL with G50S
B11: AB-007056 (antibody, V domains shown)
VH: B1 VH with R56T, S102Q
VL: B1 VL
B12: AB-007058 (antibody, V domains shown)
VH: B1 VH with R56T, S103T
VL: B1 VL
B13: AB-007059 (antibody, V domains shown)
VH: B1 VH with R56T, S104T
VL: B1 VL
B14: AB-007072 (antibody, V domains shown)
VH: B1 VH with R56T
VL: B1 VL with V53N
B15: AB-007063 (antibody, V domains shown)
VH: B1 VH with R56T
VL: B1 VL with S49A
B16: AB-007052 (antibody, V domains shown)
VH: B1 VH with R56N
VL: B1 VL
B17: AB-007064 (antibody, V domains shown)
VH: B1 VH with R56T
VL: B1 VL with S49T
B18: AB-007068 (antibody, V domains shown)
VH: B1 VH with R56T
VL: B1 VL with G50L
B19: AB-007071 (antibody, V domains shown)
VH: B1 VH with R56T
VL: B1 VL with V53S
B20: AB-007070 (antibody, V domains shown)
VH: B1 VH with R56T
VL: B1 VL with G50A
B21: AB-007057 (antibody, V domains shown)
VH: B1 VH with R56T, S102H
VL: B1 VL
B22: AB-007054 (antibody, V domains shown)
VH: B1 VH with R56T, S102A
VL: B1 VL
B23: AB-007055 (antibody, V domains shown)
VH: B1 VH with R56T, S102T
VL: B1 VL
B24: AB-007065 (antibody, V domains shown)
VH: B1 VH with R56T
VL: B1 VL with G50K

This test deals with T1, CSP Protein (Plasmodium falciparum, UniProt Q7K740 19-374).
T1 construct: also called circumsporozoite protein; complete CSP protein
T1 sequence (Q7K740 19-374 limits assumed): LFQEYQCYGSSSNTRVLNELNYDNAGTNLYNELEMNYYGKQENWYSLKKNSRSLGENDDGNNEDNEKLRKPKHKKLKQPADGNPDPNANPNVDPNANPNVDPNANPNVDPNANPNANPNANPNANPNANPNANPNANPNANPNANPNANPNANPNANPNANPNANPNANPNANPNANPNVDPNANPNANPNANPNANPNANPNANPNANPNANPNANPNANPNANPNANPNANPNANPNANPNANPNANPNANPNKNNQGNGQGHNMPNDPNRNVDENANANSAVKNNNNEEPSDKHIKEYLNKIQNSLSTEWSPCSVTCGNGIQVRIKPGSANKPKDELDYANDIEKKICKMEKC
The test is described as follows: SPR, antibody on chip.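 Note: antibodies immobilized on a Carterra chip, directly or via anti-human Fc capture, at two spots each, with CSP flowed over at 4-5 concentrations peaking at 0.5-8 µg/mL.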 On the technique in general: In SPR one partner is held on a chip, and binding of the other changes the refractive index at the surface.
Procedure: For SPR, each antibody was either directly coupled to a Carterra Chip or coupled using a goat anti-human Fc antibody. The uncoupled antibodies were washed off and various concentration gradients of the targets were flowed over the antibodies, where the highest concentration of each target was in the range 0.5-8 μg/mL. Each antibody was immobilized in two different locations on the chip to allow for duplicate measurements. The affinity for each antibody-target combination was determined using 4-5 target concentrations in Mathematica software. If variation between the two duplicates was >3-fold, the antibody-target measurement was repeated.
On to B1, for which binding was put at a Kd of 0.0414 nM.
The figure for B2 is 0.0415 nM.
For B3 the value was 0.0504 nM; for B4, 0.298 nM; for B5, 0.174 nM.
The figure for B6 is 0.0849 nM; for B7 it is 0.199 nM; for B8 it is 0.376 nM.
Turning to B9, binding was put at a Kd of 0.0816 nM.
For B10 the value was 0.0877 nM; for B11, 0.042 nM; for B12, 0.149 nM.
For the molecule B13, the Kd (in general, the free concentration of one partner at which half of the binding sites on the other are occupied at equilibrium, for simple one-to-one binding) came out at 1.08 nM.
In turn, B14 showed an equilibrium dissociation constant (Kd) of 0.194 nM.
B15: binding was put at a Kd of 0.0524 nM.
In the case of B16, the Kd worked out at 0.0261 nM.
Turning to B17, binding was characterised by a dissociation constant (Kd) of 0.556 nM.
For B18 the value was 0.152 nM; for B19, 0.0683 nM; for B20, 0.177 nM.
The figure for B21 is 0.153 nM; for B22 it is 0.17 nM; for B23 it is 0.374 nM.
The figure for B24 is 0.454 nM.

The values are drawn from patent publication US20220195023A1 (ATRECA, published 2022).
